The values below come from patent US20210230599, “STEM-LOOP COMPOSITIONS AND METHODS FOR INHIBITING INTERLEUKIN-8” (VITRISA THERAPEUTICS, INC., published 2021).

For data set [1], the target named is T1, Interleukin-8 (IL8, CXCL8), C-terminal His-tagged (Homo sapiens, UniProt P10145 SEQ:1-72). Kind of data set: competition; competition TR-FRET; S2 shortened. The conditions noted are these: tags: C-terminal 6xHis (Sino Biological). The procedure:
(§1) To better understand the sequence requirements and to confirm the stem structures of members of the Aptamer 3 family as determined from sequence covariation analysis from both the primary and secondary (degenerate) selections, a series of variants which included mutations and deletions to the predicted stems were synthesized and screened (Table 24). Activity of each of these variants were tested using a time resolved competition TR-FRET assay in which the labeled parent Aptamer 3 was competed with increasing concentrations of unlabeled variants for binding to IL8 (FIG. 14). Briefly, 2-fold dilutions of thermally equilibrated aptamers were made in TR-FRET Buffer (50 mM MOPS, pH 7.4, 125 mM NaCl, 5 mM KCl, 50 μM CHAPS, 0.1 mg/mL BSA, 1 mM CaCl₂, and 1 mM MgCl₂). 5 μL of aptamer or control solution was added to 5 μl mix of 10 nM C-terminal His-tagged-IL8, 60 nM ALEXA FLUOR® 647-labeled Aptamer, and 5 nM anti-His-Eu (Perkin Elmer) in a black wall low volume 384 well plate (Greiner). For control, 5 μl of 1000-fold excess of unlabeled parent aptamer or 5 μl TR-FRET buffer alone was added to the mix of ALEXA FLUOR® 647-labeled aptamer, His-IL8, and anti-His-Eu. The plate was covered with a plate seal and subsequently incubated in the dark for 1 hour at room temperature. The plate was read on a Biotek CYTATION™ 5 plate reader. […]

Data set [2] addresses T1, Interleukin-8 (IL8, CXCL8), C-terminal …. Briefly: TR-FRET. The following applies: tags: C-terminal 6xHis (Sino Biological); label: Alexa Fluor 647. The procedure:
(§2) Aptamers were synthesized and labeled with ALEXA FLUOR® 647, and binding to IL8 was quantified by Time-Resolved Fluorescence Resonance Energy Transfer (TR-FRET). Briefly, 2-fold dilutions of thermally equilibrated aptamers were made in TR-FRET Buffer (50 mM MOPS, pH 7.4, 125 mM NaCl, 5 mM KCl, 50 μM CHAPS, 0.1 mg/mL BSA, 1 mM CaCl₂ and 1 mM MgCl₂). […] of aptamer or control solution was added to 10 μL of 15 nM C-His-tagged-IL8 (Sino Biological) in a black wall half-area plate (Corning). In the same plate, 10 μl of aptamer solution was added to 10 μl of TR-FRET buffer alone to use for background subtraction. 10 μl of 15 nM anti-His-Eu (Perkin Elmer) was added to each well, the plate was covered with a plate seal and subsequently incubated in the dark for 1 hour at room temperature. The plate was read on a Biotek CYTATION™ 5 plate reader. Samples were excited at 330 nm and fluorescent values were collected at 665 nm. […] Apparent Kd values obtained for the fits are calculated as the concentration of half-maximal binding and shown in Table 10, and fit curves as FIG. 6. […] It is also possible that differences may arise due to TR-FRET being a homogenous solution binding assay, while bead binding has immobilized ligand and is non-homogenous, so bound aptamers may dissociate during analysis resulting in higher calculated Kd values.

Data set [3] has the same target. Briefly: competition; competition TR-FRET. The following applies: tags: C-terminal His (Sino Biological); stem-loop.
The target is the same in data set [4]. Kind of data set: TR-FRET; bead flow 13 nM. The following applies: tags: C-terminal 6xHis (Sino Biological); label: Alexa Fluor 647. As for the experimental part:
as §2

For data set [5] the target is unchanged. Briefly: TR-FRET, 500 pM IL8, protein-limited; estimated about 20 pM. The conditions noted are these: tags: C-terminal 6xHis (Sino Biological); label: Alexa Fluor 647; stem-loop. As for the experimental part:
Under these assay conditions, the ability to measure the affinity accurately is limited by the input IL8 protein concentration, and the apparent Kd under these protein-limiting conditions was determined to be 8 nM.

Data set [6] has the same target. Kind of data set: competition; competition TR-FRET. The conditions noted are these: tags: C-terminal 6xHis (Sino Biological). As for the experimental part: as §1
Data set [7] has the same target. Kind of data set: inhibition; inhibition of IL8 binding to CXCR1 cells, protein limited; neutrophil migration 3 nM. The conditions noted are these: tags: C-terminal His (Sino Biological); stem-loop. The procedure: CXCR1 overexpressing cells were used to confirm that aptamers could block IL8 binding to its cognate receptor, CXCR1, in a functional setting. Briefly, CXCR1-overexpressing cells were plated in a 96 well plate and seeded overnight. Serially diluted aptamers and 5 nM IL8 were mixed in cell culture media and applied to cells for 2 hours at 37° C. Media was aspirated, and cells were washed 3× with PBS for 5 minutes. Cells were lysed in Ultra HiBlock Buffer (Perkin Elmer) with gentle agitation. IL8 levels were determined using Ultra TR-FRET (Perkin Elmer).

The target is the same in data set [8]. Briefly: cell_activity; neutrophil migration, 3 nM IL8, protein limited. The conditions noted are these: tags: C-terminal His (Sino Biological); stem-loop. As for the experimental part: (§3) Freshly isolated primary human neutrophil migration stimulated by IL8 was measured using a transwell assay. Neutrophils were isolated from fresh whole human blood using Polymorphprep™ (AXIS Shield) and then were re-suspended in assay buffer (RPMI+0.1% Human Serum Albumin) at 10\hat{ }6 cells/mL. 5 μm Transwell inserts (Corning) were activated with […] in the plate and 100 µL of assay buffer in the transwell at 37° C. 3 nM IL8 and aptamers or controls were incubated for 1 hour, then 200 µL of the aptamer/IL8 mix was added to each well and 100 μL of neutrophils was added to the transwell. Aptamer inhibition was tested at two concentrations: 10 nM and 100 nM. After 45 minutes at 37° C., 100 μL from each well was transferred to a white 96-well plate with 50 μL of lysis buffer. The number of cells that migrated from the transwell to the well was quantified by ATPLITE® Luminescence Assay System (Perkin Elmer). In Table 13, values are normalized to 3 nM IL8 treatment and average between replicates with standard deviation. 3 nM IL8 activity inhibited by at least 50% at 10 nM aptamer concentration is consistent with aptamers having IC₅₀ values of 10 nM or better, as observed for Aptamer 3 and Aptamer 8.
The neutrophil migration assay described in Example 6 was used to further characterize optimized variants of Aptamer 3. […]

Data set [9] shares this target. The description is as above. The following applies: tags: C-terminal His (Sino Biological); stem-loop. The procedure:
as §3
The neutrophil migration assays described in Examples 6 and 18 were used to confirm the activity of Aptamers 8, 212, and 248. Assays were performed as described in those examples.
The source holds these as a separate data set.

For data set [10] the target is unchanged. Briefly: competition; competition TR-FRET; U20C. The following applies: tags: C-terminal 6xHis (Sino Biological).
For data set [11] the target is unchanged. Kind of data set: TR-FRET; bead flow 10 nM. The following applies: tags: C-terminal 6xHis (Sino Biological); label: Alexa Fluor 647. As for the experimental part:
as §2

The target is the same in data set [12]. Briefly: TR-FRET; bead flow 21 nM. The following applies: tags: C-terminal 6xHis (Sino Biological); label: Alexa Fluor 647. The procedure:
as §2

Consider GCGACGUAGAUUACGGGUAGAGUGACGCGC (ssRNA, 2'-F G, 2'-OMe A/C/U, 5' C6NH2, 3' idT) [Aptamer 44], for which the binding signal in data set [1] is more than 10 fold worse than Aptamer 3.

On to UCAGUUGCGGCCCCUGAUACCGAUUUGCCGCCCGGU (ssRNA, 2'-F G, 2'-OMe A/C/U, 5' C6NH2, 3' idT) [Aptamer 15], for which binding in data set [2] was characterised by a dissociation constant (Kd) of 22 nM.

B1: Aptamer 272 (ssRNA)
RNA: GCGACGGUAGAUUAUGGGCAGUGUGACCGCGC
modifications: 2'-F G except 2'-OMe G at X (XCX-A-CXXU-AX-AU-UAUGGGCAXU-GU-X-ACCX-CXC); 2'-OMe A,C,U; 5' C6NH2; 3' idT
Take B1: in data set [3], the binding signal is > 10 fold worse than Aptamer 147.

B2: Aptamer 278 (ssRNA)
RNA: GCGACGGUAGAUUUCGGGUAGUGUGACCGCGC
modifications: 2'-F G except 2'-OMe G at X (XCX-A-CXXU-AX-AU-UUCGGGUAXU-GU-X-ACCX-CXC); 2'-OMe A,C,U; 5' C6NH2; 3' idT
Regarding B2, the binding signal in [3] was > 10 fold worse than Aptamer 147.

In [2], UGGAUGACAUUCGGGGGCACCAAUCAUCGUCUGCU (ssRNA, 2'-F G, 2'-OMe A/C/U, 5' C6NH2, 3' idT) [Aptamer 18] yielded a dissociation constant Kd of 13 nM.

UUAGCCCUGCCAUUGGGGCAUACUUUGGCCGCACU (ssRNA, 2'-F G, 2'-OMe A/C/U, 5' C6NH2, 3' idT) [Aptamer 23] showed a Kd in data set [4] of 12 nM.

As for GGCGACGGUAGAUUAUGGGCAGUGUGACCGCGCC (ssRNA, 2'-F G, 2'-OMe A/C/U, 5' C6NH2, 3' idT) [Aptamer 147], in [5], the Kd is 0.11 nM.

On to GGCGACGGUAGAUUUUGGGUAGUGUGACCGCGCC (ssRNA, 2'-F G, 2'-OMe A/C/U, 5' C6NH2, 3' idT) [Aptamer 193], for which, in data set [6], the binding result is reported as “binds”.

B3: Aptamer 269 (ssRNA)
RNA: GGCGACGGUAGAUUAUGGGCAGUGUGACCGCGCC
modifications: 2'-F G except 2'-OMe G at X (XXCX-A-CXXU-AX-AU-UAUGGGCAGU-GU-G-ACCX-CXCC); 2'-OMe A,C,U; 5' C6NH2; 3' idT
In [7], B3 came in with a 50% inhibitory concentration (IC50) of 3 nM.

The molecule GGCGACGGUAGAUUUCGGGUAGUGUGACCGCGCC (ssRNA, 2'-F G; 2'-OMe A,C,U; 5' C6NH2; 3' idT) [Aptamer 143] displayed an IC50 in [8] of 2 nM.

B4: Aptamer 269 (ssRNA)
RNA: GGCGACGGUAGAUUAUGGGCAGUGUGACCGCGCC
modifications: 2'-OMe A/C/U, 2'-OMe G in stems S1, S2 and loop L2, 2'-F at other G, 5' C6NH2, 3' idT
For the molecule B4, the Kd in [5] is 0.126 nM.

GGCGACGGUAGAUUUUGGGCAGUGUGACCGCGCC (ssRNA, 2'-F G, 2'-OMe A/C/U, 5' C6NH2, 3' idT) [Aptamer 197]: the binding result in data set [6] was “binds”.

In [9], UACGGUGGGAAAUGUGAGAUGGGUUGCCGUAUUUU (ssRNA, 2'-F G; 2'-OMe A,C,U; 5' C6NH2; 3' idT) [Aptamer 8] yielded an IC50 of 2 nM.

B5: Aptamer 248 (ssRNA)
RNA: GCGGUGGGAAAUGUGAGAUGGGUUGCCGC
modifications: 2'-F G except 2'-OMe G at X (XCXXU-GGGA-AAUGU-GAGAU-GGGUU-XCCXC); 2'-OMe A,C,U; 5' C6NH2; 3' idT
In [9], B5 gave a 50% inhibitory concentration (IC50) of 2 nM.

Take CGGUGGGAAAUGUGAGACGGGUUGCCG (ssRNA, 2'-F G, 2'-OMe A/C/U, 5' C6NH2, 3' idT) [Aptamer 54]: the binding result in data set [10] was “binds”.

As for UGCGGCCUCCGUUGACUGUUGUAAUGCCGGGACAGU (ssRNA, 2'-F G, 2'-OMe A/C/U, 5' C6NH2, 3' idT) [Aptamer 14], the Kd in data set [4] came out at 6 nM.

For UUAAGCGCUGAGACGAGAGAUUAAUGCCGCUUGCCU (ssRNA, 2'-F G, 2'-OMe A/C/U, 5' C6NH2, 3' idT) [Aptamer 21], binding in [11] was put at a Kd of 7 nM.

For UGAUGACGGUAGAUUAUGGGCAGUGUGACCGCAUCU (ssRNA, 2'-F G; 2'-OMe A,C,U; 5' C6NH2; 3' idT) [Aptamer 99], the concentration for half-maximal inhibition (IC50) in data set [7] is 4 nM.

UGAUGACGGUAGAUUUCGGGUAGUGUGACCGCAUCU (ssRNA, 2'-F G; 2'-OMe A,C,U; 5' C6NH2; 3' idT) [Aptamer 94] came in with an IC50 in [8] of 3 nM.

In the case of GCGACGCAGAUUACGGGUAGAGUGGCGCGC (ssRNA, 2'-F G, 2'-OMe A/C/U, 5' C6NH2, 3' idT) [Aptamer 45], in data set [1], the binding signal is more than 10 fold worse than Aptamer 3.

In [12], UCGCUUGUACCUCUGAGAUGUGAGACUAAUGUAGGU (ssRNA, 2'-F G, 2'-OMe A/C/U, 5' C6NH2, 3' idT) [Aptamer 13] returned a Kd of 7 nM.
